Reference: paper PMC10536698

Tested on: CcpA (Streptococcus agalactiae GD201008-001), ORF:5b4dc1e2
Assay: EMSA
Conditions: EMSA: 20 mM Tris-HCl pH 7.5, 30 mM KCl, 1 mM DTT, 1 mM EDTA, 10% glycerol, 20 uL, 30 min at 37 C; 10% PAGE in 0.5x TBE on ice

Sequence	binding
AGTATTTGTAAAAGCTAATCTTTAGATTAGGCTTTTTTAGTTTATTGATAGTTTTTGGAAGAAAATGCTTGACATTGAAAGAAAAAGAGATATAATTAAATTGCAAACGATTTCAATTCAAGGAGGGAC (double strand) [fruRKI promoter]	binds
AAGTTTTCTCCTTTTGTATTACATTCTAGAGACTAAAGGAGATGTTGAAAATTTCTCCTAATCCCTTTAAATAACATTCTAATCATATCATAAATGTCTATAATTTTAAATTGTGAAAACGCCTTTTTTATGATAAACTTAAAAGTGGACTTTCTATATGAAATCTAGAAAAAAATTGAGGTATAAAC (double strand) [luxS promoter]	binds
